This is an account of results in article PMC4945038, “Rad51 Nucleoprotein Filament Disassembly Captured Using Fluorescent Plasmodium falciparum SSB as a Reporter for Single-Stranded DNA”.

Data set [1] concerns the target T1, Pf-SSB-MDCC (Plasmodium falciparum, UniProt Q8I415 77-284). Put plainly: fluorescence titration; 100 mM NaCl; stoichiometric, 1 tetramer per (dT)70; ~4-fold fluorescence increase; Titration and stopped-flow: 20 mM Tris-Cl pH 8, 0.1 mM EDTA, 100 mM NaCl, 1 mM TCEP, 25 C; ITC same with 200 mM NaCl; Rad51 filaments: 25 mM Tris-Cl pH 7.7, 1 mM TCEP, 5% glycerol, 10 mM MgCl2, 50 mM NaCl, 3 mM ATP, ATP regeneration. Conditions: protein: recombinant; tags: MDCC on Cys93; chain copies: 4; single strand.

The target of data set [2] is T1, Pf-SSB-MDCC. The data set is described as follows: ITC; 200 mM NaCl; stoichiometric, 2 (dT)35 per tetramer; dHobs -71.8±0.2 kcal/mol; Titration and stopped-flow: 20 mM Tris-Cl pH 8, 0.1 mM EDTA, 100 mM NaCl, 1 mM TCEP, 25 C; ITC same with 200 mM NaCl; Rad51 filaments: 25 mM Tris-Cl pH 7.7, 1 mM TCEP, 5% glycerol, 10 mM MgCl2, 50 mM NaCl, 3 mM ATP, ATP regeneration. Conditions: protein: recombinant; tags: MDCC on Cys93; chain copies: 4; single strand; 2 copies per tetramer.

The target of another data set is Pf-SSB (Plasmodium falciparum, UniProt Q8I415 77-284). Put plainly: ITC; 200 mM NaCl; stoichiometric, 2 (dT)35 per tetramer; dHobs -73.1±0.2 kcal/mol; Titration and stopped-flow: 20 mM Tris-Cl pH 8, 0.1 mM EDTA, 100 mM NaCl, 1 mM TCEP, 25 C; ITC same with 200 mM NaCl; Rad51 filaments: 25 mM Tris-Cl pH 7.7, 1 mM TCEP, 5% glycerol, 10 mM MgCl2, 50 mM NaCl, 3 mM ATP, ATP regeneration. Conditions: protein: recombinant; chain copies: 4; single strand; 2 copies per tetramer.

B1: (dT)70 (ssDNA)
DNA: TTTTTTTTTTTTTTTTTTTTTTTTTTTTTTTTTTTTTTTTTTTTTTTTTTTTTTTTTTTTTTTTTTTTTT
On to B1, for which the binding result with Pf-SSB-MDCC [1] is listed as “binds”.

B2: (dT)35 (ssDNA)
DNA: TTTTTTTTTTTTTTTTTTTTTTTTTTTTTTTTTTT
Consider B2, for which the binding result with Pf-SSB-MDCC [2] and in the data set with Pf-SSB was “binds” each time.
